Results as given in patent publication US20120207760A1.

Experiments:
Settings in all cases: remark: other sources report otherwise
[1] = molecular target: T1, recombinant homotrimeric HA, A/Egypt/3300-NAMRU3/08 H5N1 (Influenza A virus A/Egypt/3300-NAMRU3/08 (H5N1)); assay: trimeric HA microarray, transfection set 2
[2] = molecular target: T2, recombinant homotrimeric HA, A/northern shoveler/California/HKWF115/07 (Influenza A virus A/northern shoveler/California/HKWF115/2007 (H6N1)); assay: trimeric HA microarray, transfection set 2
[3] = molecular target: T3, recombinant homotrimeric HA, A/Wisconsin/67/05 H3N2 (Influenza A virus A/Wisconsin/67/05 (H3N2)); assay: trimeric HA microarray, transfection set 2
[4] = molecular target: T4, recombinant homotrimeric HA, A/swine/Ontario/01911-2/99 H4N6 (Influenza A virus A/swine/Ontario/01911-2/99 (H4N6)); assay: trimeric HA microarray, transfection set 2
[5] = molecular target: T5, recombinant homotrimeric HA, A/Solomon Islands/3/06 H1N1 (Influenza A virus A/Solomon Islands/3/06 (H1N1)); assay: trimeric HA microarray, transfection set 2
[6] = molecular target: T6, recombinant homotrimeric HA, A/California/4/09 H1N1 (Influenza A virus A/California/4/09 (H1N1)); assay: trimeric HA microarray, transfection set 2
[7] = molecular target: T7, recombinant homotrimeric HA, A/chicken/Vietnam/NCVD-016/08 H5N1 (Influenza A virus A/chicken/Vietnam/NCVD-016/08 (H5N1)); assay: trimeric HA microarray, transfection set 2
[8] = molecular target: T8, recombinant homotrimeric HA, A/Vietnam/1203/04 H5N1 (Influenza A virus A/Vietnam/1203/04 (H5N1)); assay: trimeric HA microarray, transfection set 2
[9] = molecular target: T9, recombinant homotrimeric HA, A/Hong Kong/1073/99 H9N2 (Influenza A virus A/Hong Kong/1073/99 (H9N2)); assay: trimeric HA microarray, transfection set 2
[10] = molecular target: T10, recombinant homotrimeric HA, A/Japan/305/57 H2N2 (Influenza A virus A/Japan/305/57 (H2N2)); assay: trimeric HA microarray, transfection set 2
[11] = molecular target: T11, recombinant homotrimeric HA, A/South Carolina/1/18 H1N1 (Influenza A virus A/South Carolina/1/18 (H1N1)); assay: trimeric HA microarray, transfection set 2
[12] = molecular target: T12, recombinant homotrimeric HA, A/common magpie/Hong Kong/5052/07 H5N1 (Influenza A virus A/common magpie/Hong Kong/5052/07 (H5N1)); assay: trimeric HA microarray, transfection set 2
[13] = molecular target: recombinant soluble homotrimeric HA of A/Wisconsin/67/05 (H3N2) (Influenza A virus A/Wisconsin/67/05 (H3N2)); assay: microarray, BCC supernatant IgG, trimeric HA
[14] = molecular target: T1, recombinant homotrimeric HA, …; assay: trimeric HA microarray, transfection set 3
[15] = molecular target: T3, recombinant homotrimeric HA, …; assay: trimeric HA microarray, transfection set 3
[16] = molecular target: T4, recombinant homotrimeric HA, …; assay: trimeric HA microarray, transfection set 3
[17] = molecular target: recombinant homotrimeric HA, A/duck/Yangzhou/02/05 H8N4 (Influenza A virus A/duck/Yangzhou/02/2005 (H8N4)); assay: trimeric HA microarray, transfection set 3
[18] = molecular target: T8, recombinant homotrimeric HA, …; assay: trimeric HA microarray, transfection set 3
[19] = molecular target: T10, recombinant homotrimeric HA, …; assay: trimeric HA microarray, transfection set 3
[20] = molecular target: T12, recombinant homotrimeric HA, A/common …; assay: trimeric HA microarray, transfection set 3
[21] = molecular target: recombinant soluble homotrimeric HA of A/California/4/09 (H1N1) (Influenza A virus A/California/4/09 (H1N1)); assay: microarray, BCC supernatant IgG, trimeric HA
[22] = molecular target: recombinant soluble homotrimeric HA of A/chicken/Vietnam/NCVD-016/08 (H5N1) (Influenza A virus A/chicken/Vietnam/NCVD-016/08 (H5N1)); assay: microarray, BCC supernatant IgG, trimeric HA
[23] = molecular target: recombinant soluble homotrimeric HA of A/Japan/305/57 (H2N2) (Influenza A virus A/Japan/305/57 (H2N2)); assay: microarray, BCC supernatant IgG, trimeric HA
[24] = molecular target: T2, recombinant homotrimeric HA, A/northern …; assay: trimeric HA microarray, transfection set 3
[25] = molecular target: T5, recombinant homotrimeric HA, A/Solomon …; assay: trimeric HA microarray, transfection set 3
[26] = molecular target: T7, recombinant homotrimeric HA, …; assay: trimeric HA microarray, transfection set 3
[27] = molecular target: T9, recombinant homotrimeric HA, A/Hong …; assay: trimeric HA microarray, transfection set 3
[28] = molecular target: T11, recombinant homotrimeric HA, A/South …; assay: trimeric HA microarray, transfection set 3
[29] = molecular target: recombinant homotrimeric HA, A/Netherlands/219/03 H7N7 (Influenza A virus A/Netherlands/219/03 (H7N7)); assay: trimeric HA microarray, transfection set 3
[30] = molecular target: T3, recombinant homotrimeric HA, …; assay: trimeric HA microarray, transfection set 5
[31] = molecular target: T5, recombinant homotrimeric HA, A/Solomon …; assay: trimeric HA microarray, transfection set 5
[32] = molecular target: T6, recombinant homotrimeric HA, …; assay: trimeric HA microarray, transfection set 5
[33] = molecular target: T10, recombinant homotrimeric HA, …; assay: trimeric HA microarray, transfection set 5
[34] = molecular target: recombinant soluble homotrimeric HA of A/northern shoveler/California/HKWF115/07 (Influenza A virus A/northern shoveler/California/HKWF115/2007); assay: microarray, BCC supernatant IgG, trimeric HA
[35] = molecular target: recombinant soluble homotrimeric HA of A/Solomon Islands/3/06 (H1N1) (Influenza A virus A/Solomon Islands/3/06 (H1N1)); assay: microarray, BCC supernatant IgG, trimeric HA
[36] = molecular target: recombinant soluble homotrimeric HA of A/duck/Yangzhou/02/05 (H8N4) (Influenza A virus A/duck/Yangzhou/02/2005 (H8N4)); assay: microarray, BCC supernatant IgG, trimeric HA

B1: TCN-522 (3212_I12) (antibody, V domains shown)
VH: QVQLQQWGAGLLKPSETLSLTCTVSGGSLTDYSWNWIRQPPGKGLEWIGDTLHNGYTNYNPSLRGRVSISIDTSKNQVSLRLTSVTAADTALYYCARGSGGYGGFDYFGKLRTWDFWGQGTLVTVSS
VL: DIQLTQSPSSLSASVGDRVTITCRASQGIRNDLGWYQQKPGNAPKRLIFGASSLQSGVPSRFSGSGSGTEFTLTISSLQPEDFATYYCLQHNSYPYTFGQGTKLEIK
Binder B1 has a Trimeric HA Binding RLU [1] of 55400 RLU, a Trimeric HA Binding RLU [2] of 54400 RLU and a Trimeric HA Binding RLU [3] of 3350 RLU. It also gave a Trimeric HA Binding RLU [4] of 1050 RLU, a Trimeric HA Binding RLU [5] of 17300 RLU and a Trimeric HA Binding RLU [6] of 37500 RLU. It also gave a Trimeric HA Binding RLU [7] of 49300 RLU, a Trimeric HA Binding RLU [8] of 48200 RLU and a Trimeric HA Binding RLU [9] of 11800 RLU. It also gave a Trimeric HA Binding RLU [10] of 11900 RLU, a Trimeric HA Binding RLU [11] of 39600 RLU and a Trimeric HA Binding RLU [12] of 21400 RLU. The Trimeric HA Binding: RLU [13] was 302 RLU.

B2: TCN-531 (5091_H13) (antibody, V domains shown)
VH: EVQLVESGGDLVQPGRSLKLSCTGSGFTFGDYGVTWVRQAPGKGLEWVGFIRTRPWGGTADTAASVKGRFTISRDDSKSLAYLQMNSLKTEDTAVYYCCRDAPPNVEVASMTNWYFDLWGRGTLVTVSS
VL: DIQLTQSPSSLSASVGDRVTITCRASQGILNCLAWYQQKPGKVPNLLMYAASTLQSGVPSRFSGSGFGTDFTLTISSLQPEDVATYYCQTYGGVSTFGGGTKVEIR
With B2 the Trimeric HA Binding RLU [14] was 363 RLU, the Trimeric HA Binding RLU [15] was 4160 RLU and the Trimeric HA Binding RLU [16] was 296 RLU. The Trimeric HA Binding RLU [17] was 3220 RLU, the Trimeric HA Binding RLU [18] was 2410 RLU and the Trimeric HA Binding RLU [19] was 489 RLU. The Trimeric HA Binding RLU [20] was 37 RLU, the Trimeric HA Binding: RLU [21] was 22200 RLU and the Trimeric HA Binding: RLU [22] was 20800 RLU. The Trimeric HA Binding: RLU [23] was 410 RLU.

B3: TCN-532 (5262_H18) (antibody, V domains shown)
VH: QVQLQESGPGLVKPSETLSLTCTVSGGSVSSETYYWSWIRQPPGKGLEWIGYIYYIGNTDYRPSLKSRVTISLDTSKNQFSLKLSSVTAADTAVYYCARGAYYDSSGYPAFYIWGQGTMVTVSS
VL: QSVLTQPPSVSGAPGQRVTISCTGSSSNIGSDYDVHWYKQLPGTAPKLLIFGNSNRPSGVPDRFSGSKSGTSASLAITGLQAEDEADYYCQSYDSSLSGFHVFGSGTKVTVL
Work on B3 yielded a Trimeric HA Binding RLU [24] of 78 RLU, a Trimeric HA Binding RLU [15] of 9970 RLU and a Trimeric HA Binding RLU [16] of 29 RLU. It also gave a Trimeric HA Binding RLU [25] of 59 RLU, a Trimeric HA Binding RLU [26] of 29 RLU and a Trimeric HA Binding RLU [27] of 48 RLU. The Trimeric HA Binding RLU [19] was 441 RLU, the Trimeric HA Binding RLU [28] was 311 RLU and the Trimeric HA Binding RLU [29] was 42 RLU.

B4: TCN-547 (5092_F11) (antibody, V domains shown)
VH: QVQLQESGPGLVKPSQTLSLTCTVSGDSISSVDHYWSWIRQHPVKGLEWIGFMYYSASTYYNPSLKSRVTISTDTSKNQFSLRLSSVTAADTAVYYCARGTCAGDCSLHYYYYGLDVWGQGRTVTVSS
VL: DIQMTQSPSSLSASVGDRVTITCRASQSISSYLNWYQHKPGKAPKVLMYAVSILQSGVPSRFSGSGSGADFTLTISSLQPEDFATYYCQQSYSSPLTFGGGTKVEIK
With B4 the Trimeric HA Binding RLU [30] was 6970 RLU, the Trimeric HA Binding RLU [31] was 1080 RLU and the Trimeric HA Binding RLU [32] was 1470 RLU. It also gave a Trimeric HA Binding RLU [33] of 1350 RLU, a Trimeric HA Binding: RLU [34] of 1000 RLU and a Trimeric HA Binding: RLU [21] of 170 RLU. For the same binder, the Trimeric HA Binding: RLU [22] was 198 RLU.

B5: TCN-529 (5297_H01) (antibody, V domains shown)
VH: QITLRESGPTLVKPTQTLTLTCTFSGFSLSTNGVNVGWIRQPPGKALEWLALIYWDDDKRYSPSLKRRLTITKDTSKNQVVLTLTNMDPVDTATYYCAHRPDFYGDFEYWGPGTLVTVSS
VL: QSALTQPASVSGSPGQSITISCTGSSSDIGGYNYVSWYQQHPGKAPKLMIYDVNNRPSGVSNRFSGSKSGNTASLTISGLQTDDEADYYCGSYTGSPHYVFGTGTKVTVL
Binder B5 has a Trimeric HA Binding RLU [15] of 2940 RLU, a Trimeric HA Binding RLU [16] of 45 RLU and a Trimeric HA Binding RLU [25] of 43 RLU. The Trimeric HA Binding RLU [17] was 48 RLU, the Trimeric HA Binding RLU [26] was 33 RLU and the Trimeric HA Binding RLU [27] was 46 RLU. For the same binder, the Trimeric HA Binding RLU [19] was 45 RLU, the Trimeric HA Binding RLU [28] was 158 RLU and the Trimeric HA Binding: RLU [35] was 179 RLU. The Trimeric HA Binding: RLU [36] was 771 RLU.
